According to patent publication EP4671282A1:
Where two headings read alike, the source gives them in different places.

Key:
[1] = target: human BAFF (ACROBiosystems, BAF-H52D4) (human) (UniProt Q9Y275); assay: ELISA, test sample coated, His-tagged BAFF in solution
[2] = target: human IL-36R full-length protein stably expressed on CHO-K1 cells (human) (UniProt Q9HB29); assay: FACS, CHO-K1 cells overexpressing human IL-36R
[3] = target: human IL-36R full-length protein stably expressed on CHO-K1 cells (human) (UniProt Q9HB29); assay: FACS, CHO-K1 cells overexpressing human IL-36R; remark: listed apart in the source

human IL-36R full-length protein stably expressed on CHO-K1 cells (human), sequence (Q9HB29 20-575 limits assumed): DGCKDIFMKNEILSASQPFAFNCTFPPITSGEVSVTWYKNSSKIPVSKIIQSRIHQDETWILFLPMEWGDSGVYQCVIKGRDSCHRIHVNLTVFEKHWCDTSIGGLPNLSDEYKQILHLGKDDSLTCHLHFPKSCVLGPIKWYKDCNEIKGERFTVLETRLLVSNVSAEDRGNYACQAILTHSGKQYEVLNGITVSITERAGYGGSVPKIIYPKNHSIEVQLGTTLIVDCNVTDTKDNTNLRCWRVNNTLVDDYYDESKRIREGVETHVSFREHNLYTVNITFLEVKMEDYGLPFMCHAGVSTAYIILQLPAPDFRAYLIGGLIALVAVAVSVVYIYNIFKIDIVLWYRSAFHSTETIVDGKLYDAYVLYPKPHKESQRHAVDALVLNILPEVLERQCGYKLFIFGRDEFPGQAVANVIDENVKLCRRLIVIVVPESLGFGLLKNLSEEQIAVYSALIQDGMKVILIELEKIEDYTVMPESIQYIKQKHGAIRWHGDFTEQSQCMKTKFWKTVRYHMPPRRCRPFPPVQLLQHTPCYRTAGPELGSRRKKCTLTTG
human BAFF (ACROBiosystems, BAF-H52D4) (human), sequence (Q9Y275 134-285 limits assumed): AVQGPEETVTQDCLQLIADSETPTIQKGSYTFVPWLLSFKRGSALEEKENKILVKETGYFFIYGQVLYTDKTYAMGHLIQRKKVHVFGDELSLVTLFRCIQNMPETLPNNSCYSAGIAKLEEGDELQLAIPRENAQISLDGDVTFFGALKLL

Substance | EC50 [1] | Maximum MFI [2] | Maximum MFI [3]
RCT-18, telitacicept (RC18, RemeGen) (Fc fusion) | 21.5 nM | – | –
hIgG1 (antibody) | – | 77 MFI | 47 MFI
hIgG4 (antibody) | – | 76 MFI | –
